Consider one substance from article PMC1933539.

As a reminder, the stoichiometry N is the number of molecules, sites or subunits per partner or assembly.

Assay [1] concerns the target SycO (Yersinia enterocolitica type three secretion chaperone SycO) (Yersinia enterocolitica WA-314). In words: cross-linking; 1.3 mM DSP, 3 μg/μl recombinant SycO in PBS, 30 min at 22°C; Coomassie-stained SDS-PAGE.
For assay [2] the target is unchanged. Briefly: SEC; analytical gel filtration, SMART system, Superdex 75 PC 3.2/30 in PBS; 50 μg SycO mixed with 50 μg carbonic anhydrase (29 kDa marker); fractions analysed by SDS-PAGE; column calibrated with marker proteins.

For “SycO (Yersinia enterocolitica type three secretion chaperone SycO) (natural protein)”, the stoichiometry N in assay [1] and in assay [2] was 2 throughout.
